Source: paper PMC8247607

T1: MSL2 CXC domain (CXCvir) (Drosophila virilis, UniProt O76733 514-567)
T1 sequence: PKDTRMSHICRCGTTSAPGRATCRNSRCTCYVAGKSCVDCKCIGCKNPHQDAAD

B1: S12 (dsDNA)
DNA 1: ATGAGCGAGATG
DNA 2: CATCTCGCTCAT
B2: S12 mutant (dsDNA)
DNA 1: ATGAAAAAAATG
DNA 2: CATTTTTTTCAT

Target: T1, MSL2 CXC domain (CXCvir)
Assay: NMR 1H-15N HSQC titration

| Binder | Kd |
| --- | --- |
| B1 | 2800 nM |
| B2 | 2400 nM |
